Consider six molecules from PMC7334207, “Select amino acids in DGCR8 are essential for the UGU-pri-miRNA interaction and processing” (Communications Biology, 2020).

One data set addresses T1, G478del-mut1 (Homo sapiens, UniProt Q8WYQ5 285-478, W461A;A462G;E463Q;del370-429).
T1 sequence: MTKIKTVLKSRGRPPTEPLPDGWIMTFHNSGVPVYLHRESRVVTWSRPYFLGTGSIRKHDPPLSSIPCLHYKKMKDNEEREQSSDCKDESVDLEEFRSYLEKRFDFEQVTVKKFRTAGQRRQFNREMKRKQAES
The experiment in a line: EMSA; 50 mM Tris-HCl pH 7.5, 250 mM NaCl, 10% glycerol, 0.2 mg/ml BSA, 1 mM DTT, 2 mM EDTA; 1 uM RNA in 10 uL; on ice 60 min; 4% native PAGE at 4 C, ethidium bromide. The conditions noted are these: protein: recombinant; tags: 10xHis; chain copies: 2; hairpin.

Another data set deals with T2, G478 (Rhed) (Homo sapiens, UniProt Q8WYQ5 285-478).
T2 sequence: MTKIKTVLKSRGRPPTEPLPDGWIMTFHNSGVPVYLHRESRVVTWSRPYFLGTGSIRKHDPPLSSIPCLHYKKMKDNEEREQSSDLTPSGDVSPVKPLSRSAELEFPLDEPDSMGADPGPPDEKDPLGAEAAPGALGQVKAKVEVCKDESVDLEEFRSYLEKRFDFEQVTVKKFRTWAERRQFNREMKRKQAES
Described as above. As to conditions: protein: recombinant; (purified as for G4; theoretical dimer 44 kDa implies no GFP); chain copies: 2; hairpin.

The target in a further data set is T3, G478del WT (Homo sapiens, UniProt Q8WYQ5 285-478, del370-429).
T3 sequence: T1 sequence with A117W, G118A, Q119E
Described as above. As to conditions: protein: recombinant; chain copies: 2; hairpin.

Data set [1] addresses T4, G478del WT-mut1 hybrid dimer (Homo sapiens, UniProt Q8WYQ5;Q8WYQ5 285-369+430-478;285-369+430-478, internal_change;W461A;A462G;E463Q;internal_change).
T4 sequence 1: T1 sequence with A117W, G118A, Q119E
T4 sequence 2: T1 sequence
The description is as above. The conditions noted are these: protein: recombinant; tags: 10xHis on mut1 subunit; protein G on WT subunit removed by HRV 3C; copies: 1;1; hairpin.

Data set [2] deals with the molecule itself. Kind of data set: SEC-MALS; molecular mass of the purified protein estimated with a Multi-Angle Light Scattering detector (miniDAWN TREOS, Wyatt Technology Corporation); compared with the theoretical mass of a dimer.

Substitutions are numbered along the chain they refer to.

ACUGGAAGCCAAGAAAGAUGGGCUUUCAGU (structured_RNA) [10L10_noUGU]: the Kd with G478del-mut1 came out at 13.8 ± 0.39 µM; in the data set with G478 (Rhed) it was 8.57 ± 0.96 µM; with G478del WT, 16.8 ± 1.48 µM; in data set [1], 11.5 ± 0.77 µM.

B1: G478, Rhed (RNA-binding heme domain) of DGCR8, amino acids 285–478 (domain or fragment, human, UniProt Q8WYQ5 285-478, looked up)
chain: T2 sequence
notes: Associated with hemin; also called Rhed dimer; G478 dimer; source: E. coli, purified (as described for the G4 fragments: Ni2+-agarose, SP-sepharose; then Superdex 200)
For the molecule B1, in data set [2], the “stoichiometry N” value was 2.

B2: G478del, G478 (DGCR8 amino acids 285–478) with the 370–429 region deleted (domain or fragment, human, UniProt Q8WYQ5 285-478, looked up)
chain: T1 sequence with A117W, G118A, Q119E
notes: Associated with hemin; Theoretical dimer mass ~30 kDa as printed; also called G478del–WT; source: E. coli, purified (as described for G478)
Regarding B2, the “stoichiometry N” value in data set [2] is 2.

B3: G478del-mut1, G478del with AGQ in the 461–463 region instead of WAE (domain or fragment, human, UniProt Q8WYQ5 285-478, looked up)
chain: T1 sequence
notes: Associated with hemin; source: E. coli, purified (as described for G478del)
With B3, the “stoichiometry N” value in data set [2] was 2.
With ACUGGAAGCUGUGAAAGAUGGGCUUUCAGU (structured_RNA) [10L10_UGU], the dissociation constant (Kd) is 9.03 ± 0.61 µM in the data set with G478del-mut1, 3.43 ± 0.29 µM with G478 (Rhed), 5.73 ± 0.39 µM with G478del WT and 5.43 ± 0.46 µM in data set [1].

B4: G460del, G478del with the 461–478 region deleted (domain or fragment, human, UniProt Q8WYQ5 285-460, looked up)
chain: MTKIKTVLKSRGRPPTEPLPDGWIMTFHNSGVPVYLHRESRVVTWSRPYFLGTGSIRKHDPPLSSIPCLHYKKMKDNEEREQSSDCKDESVDLEEFRSYLEKRFDFEQVTVKKFRT
notes: Lost its hemin-associating ability; source: E. coli, purified (as G478 and its variants)
Regarding B4, the “stoichiometry N” value in data set [2] was 2.
